Assay results taken from the nanobody polyreactivity screen of Harvey et al. (2022).

Assay: yeast display, Sf9 membrane polyspecificity reagent, FACS + sequencing; frameworks hold sequencing errors
In short: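 Galactose-induced (36–48 hours) yeast carrying a synthetic nanobody display library were exposed to 10% biotinylated, detergent-solubilized Sf9 membrane reagent at 4 °C for 1 hour. FACS followed streptavidin microbead enrichment, using low and high (top ~1%) gates for expression (anti-HA) and reagent binding (streptavidin). Colony PCR, MiSeq 2 × 250 sequencing and CDR-length filtering followed. Labels for polyreactivity reflect the gate of origin.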

| Sequence | polyreactivity (PSR sort gate) |
| --- | --- |
| QVQLVESGGGLVQGGGSLRLSCAASGSIFSDNAMGWYRQAPGKERELVATITFSGASTYYADSVKGRFTISRDNAKNTVYLKMNSLKPEDTAVYYCAAEEPDVIAQPGFDYWGQGTQVTVSS | low polyreactivity |
| QVQLVESGGGLVQGGGSLRLSCADSGSTFSSNAMGWYRQAPGKERELVAAITGSGGRTYYADSVKRRFTISRDNAKNTVYLQMNCLKPEDTAVYYCAKRYRGGYWGQGTQVTVSS | high polyreactivity |
| QVQLVESGGGLVQGGGSLSLSCAASGSIFLYYAMGWYRQAPGKERELVAGIRRGGRTNYSDSVKGRFTISRDNAKNNVYLQMNSLKPEDTAVDYCAKGGYCGQGTQVTVSS | high polyreactivity |
| QVQLVESGGGLVQPGGRLLLSSAASGSIFDYYVMGWYRLEPVKERELVAAISWSGASTYYADSVKGRFTISRDNAKNTVYVKMNSLKPEDTAVYYCAADYGVNTLIDYDYWGQGTQVTVSS | low polyreactivity |
| QVQLVESGGGLVQPGGSFHLSCAASGSIFVVYAMGWYRQAPVKERELVAAITSGGSTYYADSVKGRFTISRDNAKKTVYLQMNSLKPEDTAVYYCATTYRDGVYELTTFDYWGQGTQVTVSS | low polyreactivity |
| QVQLVESGGGLVQPGGSLRISCAASGFTFVYYVMGWYRQAPGKERELVAAINAGGGSTYYADSVKGRFTISRDNAKNTVYLQMNSLKPEDTAVYFCNARVRVRLGRNWSSYYYWGQGTEVTVSS | high polyreactivity |
| QVQLVESGGGLVQPGGSLRLSCAASGFIFPTNVMGWSRQAPGKEREFVASITWRGGGTYYADSVKGRFRISRDNAKNTVYVQMNSLKPEDTAVYYCAAGRSWSSYWKYDYWGQGTQVTVSS | low polyreactivity |
| QVQLVESGGGLVQPGGSLRLSCAASGGTFQPNAMVWYRQAPGKERELVAAISWSDGSTYYADSVKGRFTISLDNAKNTVYLQMNSLKPVDTAVYYCAADFTYYDSPYRDYNYESWGQGTQVTVSS | low polyreactivity |
| QVQLVESGGGLVQPGGSLRLSCAASGRTFTKNAMGWYRQAPGKERELVAAISISGGSTYYADSVKGRFTISRDNAKNTVYLLMNSLKPEDTAVYYCAADVVTYLSYTLDYWGQGTQVTVSS | low polyreactivity |
| QVQLVESGGGLVQPGGSLRLSCAASGSIDCYGMGWYRQAPGKERELVAIITSVYSTYYADSVKGRFKISRDNAKNTVYLQMNSLKPEDTAVYYCAATAAYFYGQFYYWGQGTQVTVSS | high polyreactivity |
| QVQLVESGGGLVQPGGSLRLSCAASGSIFLRYAMGWYRQAPGKERELVAGITSGGSTNYADSVKGRFTISRDNAKNTVYLQMNSLKPEDTAVYYCNKDLPDWGQGTQVTVSS | low polyreactivity |
| QVQLVESGGGLVQPGGSLRLSCAASGSIFYCNAMGSYRQAPGKEREFVAGITTSGGSTYYADSVKGRFTISRDNAKNTVYLQMNSLKPDDTAVYYCNKVWVYAVTPSSWYKYGSWGQGNQVTVSS | low polyreactivity |
| QVQLVESGGGLVQPGGSLRLSCAASGSIVKSYAMGWYRQAPGKERELVAAITWRSGRTYYADSVKGRFTISRDNAKNTVYLQMNSLKPEDTAVYYCAADDTSYYIYSYDYWGQGTQVTVSS | low polyreactivity |
| QVQLVESGGGLVQPGGSLRLSCAAYRSTFTDYDKGWYRQAPGKERELVAAITSGGSTNYADSVKGRFTISRDNAKNTFYLQLNSLKPEDTAVYYCAAADSDRKYDYWGQGTQVTVSS | low polyreactivity |
| QVQLVESGGGLVQPGGSLRLSCSASGSIFRVYGMGWYRQAPGKERELVAAITWSGGSTYYADSVKGRFSISRDKAKNTVYLQQNSLKPEDTAVYYCAARARPRYYRPPYDYWGQGTQVTVSS | high polyreactivity |
| QVQLVESGGGLVQPGGSLRLSGAASGRILTYYAMGWYRQAPGKERELFAAISWRAGSTYYADSVKGRFTISRDNAKNTVYLQMNSLKPEDTAVYYCAAKPYYIPTRTYSHYNYWGQGTLVTVSS | high polyreactivity |
| QVQLVESGGGLVQSGGILLLSCAASGITFGRNAMGWYRQAPGKEGELVAAISRGGSTNYADSVKGRFTISRDNAKNTVYLQMNRLKPEDTAVYYCATAYRGRAWGYDYWGQGTQVTVSS | high polyreactivity |
| QVQLVESGGGLVQSGGSLRLSCAACGGTFYRYAMGWYRQAPGKERELVAAITSGSSTYYADSVKGRFTISRDNAKNTVYLQMNSLTPEDTAVYYCAAARYSRLSRTRPGKYGYWGQGTQVTVST | low polyreactivity |
| QVQLVESGGGLVQSGGSLRLSCAASGFSFRYYAMGWYRQAPGKERELVAAITQSGGTTYYADSVKGRFTISRDNAKNTVYLQMNSLKPEDTAVYYCNGYGYGFTGKGDYWGQGTQVTVSS | high polyreactivity |
| QVQLVESGGGLVQSGGSLRLSCAASGFTFYRYTMGWYRQAPGKERELVAISSDGSTNYADSVKGRFTISRDNAKNTVYLQMNSLKPEDTAVYYCNAVYYNWIGFDYWGQGTQVTVSS | low polyreactivity |
| QVQLVESGGGLVQSGGSLRLSCAASGGIFGINAMGWYRQAPGKEREFVAAITASGGTTYYADSVKGRFTISRDNAKNTVYLQMNRLKPEDTAVYYCAKRYRSYDYVWYEYWGQGTQVTVSS | high polyreactivity |

| Sequence | polyreactivity (PSR sort gate) |
| --- | --- |
| QVQLVESGGGLVQSGGSLRLSCAASGINFLYYAMGWYIQAPGKERELVARINRSGGSTYYADSVKGRFTISRDNAKYTVYLQMNSLKPEDSAVYYCAADYLYRSPAYEHYYWGQGTQVTVSS | high polyreactivity |
| QVQLVESGGGLVQSGGSLRLSCAASGITFFFNAMGWYRQAPGKERELVAPITSGGGSTYYADSVKGRFTISRENAKNTVYLQMNSLKPEDTAVYYCAAEWSYGGMDYWGQGTQVTVSS | low polyreactivity |
| QVQLVESGGGLVQSGGSLRLSCAASGRIFDENAMGWYRQAPGKERELVAAITGGDSTNYADSVKGRFTISRDNAKNTVYLQMNSLKPEDTAVYYCAVDVIYYWAEDYDYWGQGTQVTVSS | low polyreactivity |
| QVQLVESGGGLVQSGGSLRLSCAASGRIFSYYTIGWYRHEPGKEREIVAAITWSGGSTYYADSVKGRFTISRDNAKNTVFLQLNRLKPEDTAVYYCNRVAPHDLRNRQEDNYWGQGTQVTVSS | low polyreactivity |
| QVQLVESGGGLVQSGGSLRLSCAASGRIFWYNAMRWYSQAPGKDRELVARITRGTRTYYADSVKGRFTISRDNAKNTVYLQMNSLKPEDTAVYYCRLQFSYTPHYDYWGQGTQVTVSS | high polyreactivity |
| QVQLVESGGGLVQSGGSLRLSCAASGRILSYNTMGSYRQAPGKERELVAAISRGGSTYYADSVKGRFTISRDNAKNTVYLQMNSLKPEDTAVYYCNALLPPGSRKYNYWGQGTQVTVSS | high polyreactivity |
| QVQLVESGGGLVQSGGSLRLSCAASGRTFGGYAMGWYRQAPGKERELVAAIRRSGGSTYYADSVKGLFTISRDNAKNTFYLQMKSMKPEDTAVYYCAAYGIYNVRIYYLGQGTQVTVSS | high polyreactivity |
| QVQLVESGGGLVQSGGSLRLSCAASGRTFNANVMGWYRPAPGKERELVAAITYSGGSTYYADSVKGRFTISRDNAKNTVYLQMNSLKPEDTAVYYCAADYVYTFYYWGQGTQVTVSS | low polyreactivity |
| QVQLVESGGGLVQSGGSLRLSCAASGSIFDFYVMGWYRQAPGKERELVAAITWSDGSTYYADSVKGRFTISRDNAKNTVYLQMNSLKPEDTAVYYCNAGYFPLLGYPADAIGYDYWGQGTQVTVSS | low polyreactivity |
| QVQLVESGGGLVQSGGSLRLSCAASGSIFNRYAMGWYRQAPGKERELVAAISARGGSTYYADSVKGRFTISRDNAKNTVYLQMNSLKPEDTAVYYCAARRQGDYYYWGQGTQVTVSS | high polyreactivity |
| QVQLVESGGGLVQSGGSLRLSCAASGSTIFRYAMGWSRQAPGKERELVAAISWSGASTYYADSVKGRFTISRDNAKNPVYLHMNSQKPEDTAVYYCAARSRWYDAAGYPKYYYWGHGTQVTVSS | high polyreactivity |
| QVQLVESGGGLVQSGGSLRLSCAASGSTVTQYVMGWYRQAPGKERELVAAISDSGSTYYADSVKGRFTISRDKAKNTVYLQMNSLKPEDTAVYYCAAAAPYHGLLYEGDYGGQGTQVTVSS | low polyreactivity |
| QVQLVESGGGLVQSGGSLRLSGAASGSTYGLNAMGWYRQAPRKEMELVAAITRSDITNYADSVNGRFRISRDNAKNTVYLQMNSLKPEDTAVYYCNKTPDRHRRYFGYGYWGQGTQVTVSS | low polyreactivity |
| QVQLVESGGGLVQSGGSLRLSSAASGYTFWAYPMGWYRQAPGKERELVAGISSRGSRTYYADSVKGRFTISRDNAKNTVYLQMNSLKPEDTAVYFCNALRTAQGYYPPLDYWGQGTQVTVSS | high polyreactivity |
| QVQLVESGGGLVQSGGSLRLTWAASGFTFNRYAMGWYRQAPGKEMELVAAITSRSGITYYADSVKGRFTISRDNAKNTVYLQMNSLKPEDTAVYYCAAYVSRSTEFDYGFWGQGTQVTVSS | high polyreactivity |
| QVQLVESGGGLVQSRVSLRLSCAASGRTIYVNAMGWYRQAPGKEREFVATISGGGSTKYADSVKGRFTISRDNAKNTVYLQMNSLKPEDTAVYYCARRRERYTADSRGYGYWGQGTQVTVSS | low polyreactivity |
| QVQLVESGGGLVQTGGSLRLSCAASGRIFRSYAMGWYRPAPGKERELVAAISGSGGSTYYADSVKGRFTISRDNAKNTVYVQMNSLKPEDTAVYYCNACKVHPFSTRFYYWGQGTQVTVSS | low polyreactivity |
| QVQLVESGGGLVQTGGSLRLSCAASGSIFGEYAMGWYRQAPGKEREFVADITWSDGSTYYADSVKGRFTISRDNAKNTVYLQMNSLKPEDTAVYYCAADSVLDRPVLYLWPWYLGDYWGQGTQVTVSS | low polyreactivity |
| QVQLVESGGGLVQTGGSLRLSCAASGSTFEYNAMGWYRQAPGKERELVAAITWTGGSRYYADSVKGRFTISRDNAKNSVYFQMNSLKPEDTAVYYCNAVSYVDIWDDRRYYYWGQGTQVTVSS | low polyreactivity |
| QVQLVESGGGLVQTGGSLRLSCAASGSTFYLYTMGWYRQAPGKERELVAAISGRDGSTYYADSVKGRFTISRDNAKNTVYLQMNSLKPEDTAVYYCAADPGYTYVHVTYYYWGQGTQVTVSS | low polyreactivity |
